Biological target: T1, TIM-3/Galectin-9 interaction (Homo sapiens, UniProt Q8TDQ0)
T1 construct: purchased R&D Systems
Experiment: Plate-based (MesoScale) competition assay of the TIM-3/Galectin-9 interaction
Format: binding
Details: serial dilutions of antibody; labeled Galectin-9 100 nM
Procedure: FIG. 1 is a graph depicting the impact of MBG453 on the interaction between TIM3 and galectin-9. Competition was assessed as a measure of the ability of the antibody to block Gal9-SULFOTag signal to TIM-3 receptor, which is shown on the Y-axis. Concentration of the antibody is shown on the X-axis.
TIM-3 fusion protein (R&D Systems) was coated on a standard MesoScale 96 well plate (Meso Scale Discovery) at 2 μg/ml in PBS (Phosphate Buffered Saline) and incubated for six hours at room temperature. The plate was washed three times with PBST (PBS buffer containing 0.05% Tween-20) and blocked with PBS containing 5% Probumin (Millipore) overnight at 4° C. After incubation, the plate was washed three times with PBST and unlabeled antibody (F38-2E2 (BioLegend); MBG453; MBG453 F(ab′)2; MBG453 F(ab); or control recombinant human Galectin-9 protein) diluted in Assay Diluent (2% Probumin, 0.1% Tween-20, 0.1% Triton X-100 (Sigma) with 10% StabilGuard (SurModics)), was added in serial dilutions to the plate and incubated for one hour on an orbital shaker at room temperature. […] The plate was again washed three times with PBST, and Read Buffer T (1×) was added to the plate. The plate was read on MA600 Imager, and competition was assessed as a measure of the ability of the antibody to block Gal9-SULFOTag signal to TIM-3 receptor.

B1: control Galectin-9 protein: unlabeled control recombinant human Galectin-9 protein (protein)
chain: AFSGSQAPYLSPAVPFSGTIQGGLQDGLQITVNGTVLSSSGTRFAVNFQTGFSGNDIAFHFNPRFEDGGYVVCNTRQNGSWGPEERKTHMPFQKGMPFDLCFLVQSSDFKVMVNGILFVQYFHRVPFHRVDTISVNGSVQLSYISFQPPGVWPANPAPITQTVIHTVQSAPGQMFSTPAIPPMMYPHPAYPMPFITTILGGLYPSKSILLSGTVLPSAQRFHINLCSGNHIAFHLNPRFDENAVVRNTQIDNSWGSEERSLPRKMPFVRGQSFSVWILCEAHCLKVAVDGQHLFEYYHRLRNLPTINRLEVGGDIQLTHVQT
block of the interaction between TIM-3 and Galectin-9 (Gal9-SULFOTag signal to TIM-3): did not

From patent publication US20230057071A1 (NOVARTIS AG, priority 2019, published 2023)
